The values that follow come from article PMC2927733.

The target in assay [1] is PccB D422C (Streptomyces coelicolor). The experiment in a line: crystal structure.
For assay [2] the target is unchanged. The experiment in a line: SEC.
Assay [3] has as its target PccB N80A (Streptomyces coelicolor). The experiment in a line: SEC.
Assay [4] has as its target PccB D422N (Streptomyces coelicolor). The experiment in a line: crystal structure.
Assay [5] shares this target. The experiment in a line: SEC.
Assay [6] addresses PccB D422I (Streptomyces coelicolor). The experiment in a line: SEC.
Assay [7] addresses PccB D422E (Streptomyces coelicolor). The experiment in a line: SEC.
Assay [8] concerns the target PccB D422A (Streptomyces coelicolor). The experiment in a line: crystal structure.
The target in assay [9] is PccB D422F (Streptomyces coelicolor). The experiment in a line: SEC.
For assay [10], the target named is PccB D422V (Streptomyces coelicolor). The experiment in a line: crystal structure.
The target is the same in assay [11]. The experiment in a line: SEC.
Assay [12] deals with PccB R456A/R457A (Streptomyces coelicolor). The experiment in a line: SEC.
For assay [13], the target named is PccB D422Q (Streptomyces coelicolor). The experiment in a line: SEC.
Assay [14] has as its target PccB R456A (Streptomyces coelicolor). The experiment in a line: SEC.
For assay [15], the target named is PccB D422L (Streptomyces coelicolor). The experiment in a line: crystal structure.
Assay [16] shares this target. The experiment in a line: SEC.
In assay [17] the target is wild type PccB, β subunit of propionyl-CoA carboxylase (PCC) of Streptomyces coelicolor (Streptomyces coelicolor). The experiment in a line: SEC.
Assay [18] has as its target PccB D422Y (Streptomyces coelicolor). The experiment in a line: SEC.

Values joined by “and” are separate entries in the source; they are usually repeats but may differ in a detail not shown here. Equal entries are not always repeated.

On to PccB D422C (enzyme), for which the stoichiometry N in [1] and in assay [2] was 6 in each case. PccB N80A (enzyme): in [3], the ratio of dimer to hexamer (dimer:hexamer) came out at 2; the stoichiometry N is 2 and 6. Turning to PccB D422N (enzyme), the stoichiometry N in assay [4] and in assay [5] was 6 throughout. For the substance PccB D422I (enzyme), the stoichiometry N in assay [6] came to 6. Consider PccB D422E (enzyme), for which, in assay [7], the stoichiometry N came out at 6. In [8], PccB D422A (enzyme) gave a stoichiometry N of 6. With PccB D422F (enzyme), the stoichiometry N in assay [9] was 2 and 3. Turning to PccB D422V (enzyme), the stoichiometry N in [10] and in [11] was 6 each time. PccB R456A/R457A (enzyme): in assay [12], the ratio of dimer to hexamer (dimer:hexamer) stood at 2.9; the stoichiometry N is 2 and 6. On to PccB D422Q (enzyme), for which the stoichiometry N in assay [13] is 2 and 3. On to PccB R456A (enzyme), for which, in [14], the ratio of dimer to hexamer (dimer:hexamer) came to 2.2; the stoichiometry N was 2 and 6. As for PccB D422L (enzyme), the stoichiometry N in assay [15] and in [16] was 6 each time. In turn, “wild type PccB, β subunit of propionyl-CoA carboxylase (PCC) of Streptomyces coelicolor (enzyme)” showed a stoichiometry N in assay [17] of 6. For PccB D422Y (enzyme), in assay [18], the stoichiometry N is 6.
